# In paper PMC11661447:
# Target: RNA-dependent RNA polymerase (RdRp) of HuNoV GII.4 Sydney strain (human norovirus GII.4 Sydney strain)
# Assay: SEC + AUC; purified RdRp alone, physiologically relevant conditions (pH 7.5); sedimentation velocity of 10 μM RdRp at 40,000 rpm, 22°C; monomer, dimers and higher-order oligomers
substance,measurement,value
RNA-dependent RNA polymerase (RdRp) of HuNoV GII.4 Sydney strain (enzyme),percent as dimers,15%
same,percent as monomer,75%
same,stoichiometry N,2
